Publication PMC6138625

Key:
Assay in all cases: magnetic tweezers SMBA
[1] = tested on: UPF1/BC (Saccharomyces cerevisiae / Homo sapiens chimera); details: no ATP; slides; SMBA in helicase buffer without ATP (composition not in the material), 1-20 nM helicase, force cycles >15 pN / 7 pN / <3 pN
[2] = tested on: IGHMBP2-FL (Homo sapiens); details: no ATP; 7 pN; n=27; SMBA in helicase buffer without ATP (composition not in the material), 1-20 nM helicase, force cycles >15 pN / 7 pN / <3 pN
[3] = tested on: IGHMBP2 helicase core (Homo sapiens); details: no ATP; 7 pN; n=48; SMBA in helicase buffer without ATP (composition not in the material), 1-20 nM helicase, force cycles >15 pN / 7 pN / <3 pN
[4] = tested on: yUPF1 helicase domain (Saccharomyces cerevisiae); details: no ATP; 7 pN; n=11; SMBA in helicase buffer without ATP (composition not in the material), 1-20 nM helicase, force cycles >15 pN / 7 pN / <3 pN
[5] = tested on: IGHMBP2/BC (Homo sapiens / Saccharomyces cerevisiae chimera); details: no ATP; SMBA in helicase buffer without ATP (composition not in the material), 1-20 nM helicase, force cycles >15 pN / 7 pN / <3 pN
[6] = tested on: UPF1 R487S (R-S) (Saccharomyces cerevisiae); details: SMBA in helicase buffer without ATP (composition not in the material), 1-20 nM helicase, force cycles >15 pN / 7 pN / <3 pN

Substance: magnetic tweezers DNA hairpin
- binding signal (s (residence time)) [1]: 930
- binding signal (s (residence time)) [2]: 60
- binding signal (s (residence time)) [3]: 20
- binding signal (s (residence time)) [4]: > 5500
- binding signal (s (residence time)) [5]: 9540
- binding signal (s (residence time)) ([6]; ADPNP, sliding -0.109 nm/s, n=58): 1630
- binding signal (s (residence time)) ([6]; no ATP, sliding -0.063 nm/s): 1840
